Test results from the supplement of paper PMC10065799, “High-throughput profiling of sequence recognition by tyrosine kinases and SH2 domains using bacterial peptide display” (eLife, 2023).

Assays:
Fyn = Fyn (UniProt P06241); experiment: phosphorylation enrichment, bacterial display (enrichment ratio); higher = better substrate or ligand; peptides without Tyr show the background
Fes = Fes (UniProt P07332); experiment: as above
c-Abl (mouse) = experiment: as above
EPHB1 = EPHB1 (UniProt P54762); experiment: as above
Jak2 = Jak2 (UniProt O60674); experiment: as above
AncSZ = experiment: as above
MERTK = MERTK (UniProt Q12866); experiment: as above
FGFR1 = FGFR1 (UniProt P11362); experiment: as above
c-Src = experiment: as above
FGFR3 = FGFR3 (UniProt P22607); experiment: as above
EPHB2 = EPHB2 (UniProt P29323); experiment: as above
Hck = Hck (UniProt P08631); experiment: as above
Fer (mouse) = experiment: as above
c-Src SH2 = experiment: SH2 binding enrichment of the phosphorylated peptide, bacterial display (enrichment ratio); higher = better substrate or ligand; peptides without Tyr show the background
Grb2 SH2 = Grb2 SH2 (UniProt P62993); experiment: as above
SHP2-C SH2 = experiment: as above
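Throughout, for SH2 binding enrichment of the phosphorylated peptide, bacterial display: peptide library displayed on the E. coli surface as eCPX fusions, selected cells deep-sequenced, score is each peptide's frequency after selection divided by its frequency in the input.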
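Throughout, for phosphorylation enrichment, bacterial display: 11-residue human phosphosite peptides and single-mutation variants displayed on the E. coli surface, counted by deep sequencing, each peptide's frequency after selection divided by its frequency in the unselected input library; frequency after pTyr selection over input frequency; kinase dosed for 20-30% of maximal phosphorylation in three min.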

EPHB2, sequence (P29323 whole entry, looked up): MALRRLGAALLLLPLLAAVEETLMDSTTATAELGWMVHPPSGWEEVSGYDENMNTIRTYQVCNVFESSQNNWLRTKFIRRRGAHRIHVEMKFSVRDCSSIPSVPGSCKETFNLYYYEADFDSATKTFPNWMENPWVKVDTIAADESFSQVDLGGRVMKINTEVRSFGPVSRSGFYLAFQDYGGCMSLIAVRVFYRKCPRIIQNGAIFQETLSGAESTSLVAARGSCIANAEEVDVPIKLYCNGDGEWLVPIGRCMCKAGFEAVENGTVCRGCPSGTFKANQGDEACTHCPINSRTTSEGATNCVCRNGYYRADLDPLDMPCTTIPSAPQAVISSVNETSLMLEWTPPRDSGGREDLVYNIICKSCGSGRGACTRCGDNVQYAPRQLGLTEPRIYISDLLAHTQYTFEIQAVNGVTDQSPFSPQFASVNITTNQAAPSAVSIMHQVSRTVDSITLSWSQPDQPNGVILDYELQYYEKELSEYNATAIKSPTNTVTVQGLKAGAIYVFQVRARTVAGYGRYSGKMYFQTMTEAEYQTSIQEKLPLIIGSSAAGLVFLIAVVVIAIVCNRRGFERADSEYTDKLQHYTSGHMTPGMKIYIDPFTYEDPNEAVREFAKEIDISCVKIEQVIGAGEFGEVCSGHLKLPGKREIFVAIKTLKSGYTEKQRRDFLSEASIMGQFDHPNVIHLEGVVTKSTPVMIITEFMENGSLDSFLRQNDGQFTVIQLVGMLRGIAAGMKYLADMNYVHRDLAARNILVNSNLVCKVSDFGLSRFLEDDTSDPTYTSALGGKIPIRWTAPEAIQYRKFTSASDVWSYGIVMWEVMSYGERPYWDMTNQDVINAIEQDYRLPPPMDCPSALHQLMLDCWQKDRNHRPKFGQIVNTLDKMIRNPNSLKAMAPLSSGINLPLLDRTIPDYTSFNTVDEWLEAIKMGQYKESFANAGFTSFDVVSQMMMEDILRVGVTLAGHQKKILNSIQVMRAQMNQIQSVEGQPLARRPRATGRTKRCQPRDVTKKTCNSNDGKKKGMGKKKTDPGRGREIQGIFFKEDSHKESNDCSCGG
EPHB1, sequence (P54762 whole entry, looked up): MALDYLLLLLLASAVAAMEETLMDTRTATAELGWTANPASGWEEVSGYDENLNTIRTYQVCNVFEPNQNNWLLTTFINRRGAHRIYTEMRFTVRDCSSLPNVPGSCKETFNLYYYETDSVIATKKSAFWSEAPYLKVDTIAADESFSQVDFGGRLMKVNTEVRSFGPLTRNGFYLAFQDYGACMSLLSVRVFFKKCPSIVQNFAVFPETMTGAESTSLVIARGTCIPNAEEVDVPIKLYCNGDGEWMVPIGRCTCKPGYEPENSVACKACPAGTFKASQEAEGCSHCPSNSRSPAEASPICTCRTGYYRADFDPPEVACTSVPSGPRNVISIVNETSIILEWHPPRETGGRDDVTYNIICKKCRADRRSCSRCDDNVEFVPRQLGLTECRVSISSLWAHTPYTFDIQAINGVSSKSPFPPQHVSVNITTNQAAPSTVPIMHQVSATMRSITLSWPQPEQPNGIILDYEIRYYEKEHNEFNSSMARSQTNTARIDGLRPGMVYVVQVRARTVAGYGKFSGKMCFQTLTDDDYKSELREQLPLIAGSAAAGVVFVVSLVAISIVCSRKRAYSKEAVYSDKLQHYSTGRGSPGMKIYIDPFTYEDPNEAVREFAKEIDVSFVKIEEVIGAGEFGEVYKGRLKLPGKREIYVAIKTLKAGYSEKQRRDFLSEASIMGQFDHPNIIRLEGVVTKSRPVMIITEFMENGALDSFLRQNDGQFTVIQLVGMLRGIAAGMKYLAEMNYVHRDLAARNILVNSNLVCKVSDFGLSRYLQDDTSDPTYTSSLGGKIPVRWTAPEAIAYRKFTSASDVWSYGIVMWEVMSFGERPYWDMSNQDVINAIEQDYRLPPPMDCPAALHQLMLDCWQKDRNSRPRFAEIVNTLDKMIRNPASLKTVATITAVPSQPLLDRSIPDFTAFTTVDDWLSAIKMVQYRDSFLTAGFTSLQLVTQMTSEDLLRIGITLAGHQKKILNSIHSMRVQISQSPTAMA
MERTK, sequence (Q12866 whole entry, looked up): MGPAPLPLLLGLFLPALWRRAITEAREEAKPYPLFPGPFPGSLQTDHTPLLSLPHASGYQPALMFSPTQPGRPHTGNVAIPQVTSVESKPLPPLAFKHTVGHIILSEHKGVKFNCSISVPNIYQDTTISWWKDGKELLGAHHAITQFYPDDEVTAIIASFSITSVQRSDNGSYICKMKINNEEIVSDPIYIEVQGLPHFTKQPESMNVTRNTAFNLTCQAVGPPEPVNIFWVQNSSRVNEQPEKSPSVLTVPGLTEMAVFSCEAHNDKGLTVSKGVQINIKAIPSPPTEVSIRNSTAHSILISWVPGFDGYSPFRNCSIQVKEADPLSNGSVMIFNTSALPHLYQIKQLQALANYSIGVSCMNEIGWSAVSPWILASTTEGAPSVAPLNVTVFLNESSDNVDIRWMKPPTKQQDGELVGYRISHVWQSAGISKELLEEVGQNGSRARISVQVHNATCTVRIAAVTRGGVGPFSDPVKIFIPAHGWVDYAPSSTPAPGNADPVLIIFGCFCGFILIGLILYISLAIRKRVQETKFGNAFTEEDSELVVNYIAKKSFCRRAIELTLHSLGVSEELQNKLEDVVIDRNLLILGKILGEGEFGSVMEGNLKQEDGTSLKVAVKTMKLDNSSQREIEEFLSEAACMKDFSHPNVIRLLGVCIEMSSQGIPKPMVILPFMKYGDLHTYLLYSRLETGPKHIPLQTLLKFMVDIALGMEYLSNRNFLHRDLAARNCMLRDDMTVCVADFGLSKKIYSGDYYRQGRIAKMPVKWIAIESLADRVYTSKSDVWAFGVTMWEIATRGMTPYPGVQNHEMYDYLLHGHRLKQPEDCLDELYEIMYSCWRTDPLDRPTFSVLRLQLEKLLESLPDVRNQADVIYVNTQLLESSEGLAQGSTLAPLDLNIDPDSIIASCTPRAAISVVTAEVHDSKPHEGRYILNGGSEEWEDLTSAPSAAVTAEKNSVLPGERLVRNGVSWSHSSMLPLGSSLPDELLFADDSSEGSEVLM
Fyn, sequence (P06241 whole entry, looked up): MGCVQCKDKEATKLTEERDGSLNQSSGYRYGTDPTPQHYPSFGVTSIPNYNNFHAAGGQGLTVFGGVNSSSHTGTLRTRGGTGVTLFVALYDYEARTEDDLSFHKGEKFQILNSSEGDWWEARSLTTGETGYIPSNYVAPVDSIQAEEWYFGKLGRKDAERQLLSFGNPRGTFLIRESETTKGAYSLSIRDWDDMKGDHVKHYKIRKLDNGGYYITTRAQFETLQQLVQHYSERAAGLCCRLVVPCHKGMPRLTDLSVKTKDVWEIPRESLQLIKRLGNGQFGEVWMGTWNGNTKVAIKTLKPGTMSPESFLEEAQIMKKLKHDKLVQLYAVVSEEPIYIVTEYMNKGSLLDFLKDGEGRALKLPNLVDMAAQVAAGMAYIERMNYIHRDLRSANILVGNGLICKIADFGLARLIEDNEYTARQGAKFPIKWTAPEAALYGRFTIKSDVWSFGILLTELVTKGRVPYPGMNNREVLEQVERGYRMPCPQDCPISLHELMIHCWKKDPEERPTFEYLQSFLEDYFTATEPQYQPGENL
Hck, sequence (P08631 whole entry, looked up): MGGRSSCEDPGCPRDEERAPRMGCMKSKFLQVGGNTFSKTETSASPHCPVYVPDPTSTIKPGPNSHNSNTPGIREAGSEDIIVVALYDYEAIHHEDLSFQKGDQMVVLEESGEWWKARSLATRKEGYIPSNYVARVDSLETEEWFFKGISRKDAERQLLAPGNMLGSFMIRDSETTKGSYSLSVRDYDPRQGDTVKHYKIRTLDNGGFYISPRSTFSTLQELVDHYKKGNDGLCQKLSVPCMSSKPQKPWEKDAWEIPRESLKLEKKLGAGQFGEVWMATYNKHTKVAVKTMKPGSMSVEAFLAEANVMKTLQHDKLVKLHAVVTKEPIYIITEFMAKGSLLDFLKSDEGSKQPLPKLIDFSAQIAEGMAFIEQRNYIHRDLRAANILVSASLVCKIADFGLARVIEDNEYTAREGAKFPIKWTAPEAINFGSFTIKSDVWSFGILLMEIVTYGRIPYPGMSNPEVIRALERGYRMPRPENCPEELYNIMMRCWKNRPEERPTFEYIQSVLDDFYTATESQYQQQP
FGFR3, sequence (P22607 whole entry, looked up): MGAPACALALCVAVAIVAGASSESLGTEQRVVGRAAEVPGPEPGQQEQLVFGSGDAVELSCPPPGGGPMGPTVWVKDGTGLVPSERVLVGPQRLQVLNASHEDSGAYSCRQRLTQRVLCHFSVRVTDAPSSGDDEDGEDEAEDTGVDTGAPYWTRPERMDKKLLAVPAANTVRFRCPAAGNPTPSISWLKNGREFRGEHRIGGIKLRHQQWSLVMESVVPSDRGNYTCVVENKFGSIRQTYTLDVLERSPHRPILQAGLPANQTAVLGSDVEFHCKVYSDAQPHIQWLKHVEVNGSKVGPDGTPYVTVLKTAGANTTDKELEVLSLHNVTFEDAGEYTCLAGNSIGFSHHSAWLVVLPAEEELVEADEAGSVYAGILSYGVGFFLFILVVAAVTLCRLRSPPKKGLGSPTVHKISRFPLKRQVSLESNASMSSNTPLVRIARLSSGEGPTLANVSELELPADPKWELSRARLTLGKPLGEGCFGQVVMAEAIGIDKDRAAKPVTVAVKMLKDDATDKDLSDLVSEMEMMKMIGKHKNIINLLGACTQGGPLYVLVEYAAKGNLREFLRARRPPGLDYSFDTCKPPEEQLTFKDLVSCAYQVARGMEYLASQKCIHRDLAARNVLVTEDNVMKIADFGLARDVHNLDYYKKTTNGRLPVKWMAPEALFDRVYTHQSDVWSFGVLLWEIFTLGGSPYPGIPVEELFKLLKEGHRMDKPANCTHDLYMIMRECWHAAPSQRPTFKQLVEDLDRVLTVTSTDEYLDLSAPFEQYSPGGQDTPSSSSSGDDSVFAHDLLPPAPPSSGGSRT

Row | Sequence | phosphorylation enrichment (Fyn) | phosphorylation enrichment (Fes) | phosphorylation enrichment (c-Abl (mouse)) | phosphorylation enrichment (EPHB1) | phosphorylation enrichment (Jak2) | phosphorylation enrichment (AncSZ) | phosphorylation enrichment (MERTK) | phosphorylation enrichment (FGFR1) | phosphorylation enrichment (c-Src) | phosphorylation enrichment (FGFR3) | phosphorylation enrichment (EPHB2) | phosphorylation enrichment (Hck) | phosphorylation enrichment (Fer (mouse)) | SH2 binding enrichment (c-Src SH2) | SH2 binding enrichment (Grb2 SH2) | SH2 binding enrichment (SHP2-C SH2)
1 | FDDDDYDMDFV [BLM_Y296_T298M] | 0.613 | 1.23 | 0.68 | 0.761 | 0.945 | 1.29 | 0.438 | 0.55 | 0.57 | 0.815 | 0.612 | 0.56 | 0.561 | 0.485 | 0.795 | 0.606
2 | FADIAYIFRHG [PAH_Y166_N167I_YF] | 0.508 | 1.03 | 0.579 | 0.715 | 0.97 | 0.908 | 0.458 | 0.637 | 0.415 | 0.626 | 0.487 | 0.449 | 0.507 | 0.659 | 0.756 | 0.796
3 | LRGEDYGFSVD [PRKCI_Y430] | 0.518 | 1.35 | 1.12 | 0.686 | 1 | 1.1 | 0.623 | 0.587 | 0.512 | 0.835 | 0.668 | 0.58 | 0.636 | 0.42 | 0.697 | 0.675
4 | DDYDLYGGEKF [PTPN11_Y66_Y62D] | 1.7 | 1.1 | 0.871 | 0.915 | 0.963 | 1.51 | 0.439 | 0.507 | 2.07 | 0.681 | 2.85 | 2.25 | 0.957 | 0.553 | 0.76 | 0.59
5 | LGGAMYYLEAE [PKHD1_Y452] | 2.54 | 1.61 | 1.2 | 1.62 | 1.42 | 1.42 | 1.74 | 2.22 | 2.14 | 2.46 | 1.25 | 1.4 | 0.667 | 0.841 | 0.811 | 0.657
6 | FHLGKYLQEVL [KLB_Y910_Y906H_YF] | 0.346 | 1.52 | 1.01 | 0.415 | 1.36 | 1.58 | 0.428 | 0.415 | 0.491 | 0.788 | 0.514 | 0.591 | 0.48 | 0.49 | 0.706 | 0.935
7 | AEFGLYGAMVW [VSX2_Y222_R227W_YF] | 3.08 | 1.48 | 0.995 | 0.729 | 1.38 | 1.26 | 1.06 | 0.645 | 2.69 | 0.887 | 1.15 | 2.93 | 2.1 | 0.457 | 0.805 | 0.656
8 | EQYELHCEMGS [CBL_Y371_Y371H] | 0.491 | 1.18 | 0.82 | 0.682 | 1.03 | 1.33 | 0.476 | 0.538 | 0.61 | 0.818 | 0.63 | 0.498 | 0.915 | 0.611 | 0.815 | 0.859
9 | ATPKGYELDAS [OTC_Y223_P225L] | 0.478 | 0.903 | 0.697 | 0.442 | 1 | 0.966 | 0.491 | 0.466 | 0.405 | 0.557 | 0.551 | 0.442 | 0.465 | 0.627 | 0.878 | 0.665
10 | FHLLPYTIRAM [PARS2_Y93_V95I_YF] | 0.5 | 0.972 | 0.621 | 0.504 | 0.708 | 0.825 | 0.373 | 0.547 | 1.02 | 0.533 | 0.588 | 0.541 | 0.454 | 1.55 | 1.66 | 1.62
11 | WEPFGFAVTRC [PTPRT_Y412_Y412F] | 0.409 | 1.48 | 1 | 0.702 | 1.4 | 1.18 | 0.399 | 0.447 | 0.409 | 0.845 | 0.653 | 0.456 | 0.548 | 0.368 | 0.774 | 0.694
12 | VDASFCGGRGV [ANTXR2_Y381_Y381C_YF] | 0.405 | 1.11 | 0.744 | 0.514 | 0.894 | 0.818 | 0.396 | 0.531 | 0.413 | 0.629 | 0.495 | 0.539 | 0.49 | 0.389 | 0.728 | 0.559
13 | AERKLYSGAQT [ZAP70_Y178] | 0.375 | 0.536 | 0.545 | 0.436 | 0.412 | 0.504 | 0.414 | 0.36 | 0.383 | 0.457 | 0.295 | 0.395 | 0.358 | 0.548 | 0.967 | 0.635
14 | CTTIQYNFMCN [TP53_Y234_H233Q_YF] | 0.494 | 1.01 | 0.593 | 0.499 | 0.853 | 0.969 | 0.438 | 0.586 | 0.5 | 0.689 | 0.49 | 0.611 | 0.485 | 1.87 | 2.22 | 1.68
15 | KWTVDYLSQVG [TYW5_Y48] | 0.443 | 1.05 | 0.635 | 0.602 | 0.887 | 0.953 | 0.373 | 0.605 | 0.466 | 0.63 | 0.494 | 0.462 | 0.391 | 0.549 | 0.886 | 0.766
16 | RLNWIYYKDQT [RS1_Y165] | 0.687 | 2.66 | 0.676 | 0.985 | 1.78 | 1.53 | 0.672 | 0.643 | 0.616 | 0.98 | 0.712 | 0.947 | 0.844 | 0.735 | 1.11 | 0.801
